The results in this text go back to the supplement of paper PMC10065799, “High-throughput profiling of sequence recognition by tyrosine kinases and SH2 domains using bacterial peptide display” (eLife, 2023).

The subject of one data set is AncSZ. In words: phosphorylation enrichment, bacterial display (enrichment ratio); higher = better substrate or ligand; peptides without Tyr show the background.
The next data set deals with FGFR3 (UniProt P22607). Described as above.
Another data set addresses Fes (UniProt P07332). Described as above.
A further data set concerns c-Src. The description is as above.
A further data set concerns c-Abl (mouse). Described as above.
A further data set has as its target EPHB2 (UniProt P29323). The data set is described as above.
Another data set deals with EPHB1 (UniProt P54762). The data set is described as above.
Chain of EPHB1 (P54762 whole entry, looked up): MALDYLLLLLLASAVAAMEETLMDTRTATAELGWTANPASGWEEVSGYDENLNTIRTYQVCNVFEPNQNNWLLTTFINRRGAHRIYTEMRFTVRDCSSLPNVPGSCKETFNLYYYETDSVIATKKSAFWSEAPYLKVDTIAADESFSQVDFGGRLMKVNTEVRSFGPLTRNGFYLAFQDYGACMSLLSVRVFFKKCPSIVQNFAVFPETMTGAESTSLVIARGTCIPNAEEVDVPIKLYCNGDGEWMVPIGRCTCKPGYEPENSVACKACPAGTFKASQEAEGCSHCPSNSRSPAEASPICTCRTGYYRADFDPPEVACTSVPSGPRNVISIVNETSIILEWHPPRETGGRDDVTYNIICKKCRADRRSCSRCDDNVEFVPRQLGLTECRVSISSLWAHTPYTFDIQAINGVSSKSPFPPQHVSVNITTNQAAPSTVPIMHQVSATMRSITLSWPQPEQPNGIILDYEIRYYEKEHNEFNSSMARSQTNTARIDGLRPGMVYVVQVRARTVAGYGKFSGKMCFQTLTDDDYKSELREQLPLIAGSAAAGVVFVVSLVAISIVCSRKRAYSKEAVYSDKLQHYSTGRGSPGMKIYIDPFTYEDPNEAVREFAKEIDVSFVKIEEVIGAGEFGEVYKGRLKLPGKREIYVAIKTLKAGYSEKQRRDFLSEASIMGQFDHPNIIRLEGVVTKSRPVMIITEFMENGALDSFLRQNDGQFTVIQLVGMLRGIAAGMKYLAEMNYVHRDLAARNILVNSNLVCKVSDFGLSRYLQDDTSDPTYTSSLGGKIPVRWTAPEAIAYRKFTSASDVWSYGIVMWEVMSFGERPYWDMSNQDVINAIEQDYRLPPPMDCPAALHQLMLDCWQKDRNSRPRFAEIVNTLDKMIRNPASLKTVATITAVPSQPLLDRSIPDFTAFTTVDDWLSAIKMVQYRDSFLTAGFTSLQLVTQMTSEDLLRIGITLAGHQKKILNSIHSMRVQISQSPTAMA
Another data set addresses MERTK (UniProt Q12866). Described as above.
A further data set addresses Fyn (UniProt P06241). The data set is described as above.
For the next data set, the target named is Hck (UniProt P08631). The data set is described as above.
Chain of Hck (P08631 whole entry, looked up): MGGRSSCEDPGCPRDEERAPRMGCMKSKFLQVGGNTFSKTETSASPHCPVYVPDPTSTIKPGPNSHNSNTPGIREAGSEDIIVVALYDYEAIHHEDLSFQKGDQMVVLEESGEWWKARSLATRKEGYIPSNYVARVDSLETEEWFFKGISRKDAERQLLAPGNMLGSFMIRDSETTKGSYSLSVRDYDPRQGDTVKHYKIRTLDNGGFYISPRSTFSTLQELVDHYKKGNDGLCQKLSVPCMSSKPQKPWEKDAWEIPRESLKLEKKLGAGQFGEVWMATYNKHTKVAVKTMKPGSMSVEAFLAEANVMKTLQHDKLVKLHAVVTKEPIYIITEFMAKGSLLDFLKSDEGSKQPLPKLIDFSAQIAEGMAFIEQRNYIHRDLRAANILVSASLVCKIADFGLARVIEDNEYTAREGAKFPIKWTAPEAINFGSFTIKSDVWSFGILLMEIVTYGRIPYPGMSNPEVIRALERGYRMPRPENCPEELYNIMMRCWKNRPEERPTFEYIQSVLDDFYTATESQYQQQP
For a further data set, the system named is Fer (mouse). The description is as above.
The target in another data set is FGFR1 (UniProt P11362). The data set is described as above.
Chain of FGFR1 (P11362 whole entry, looked up): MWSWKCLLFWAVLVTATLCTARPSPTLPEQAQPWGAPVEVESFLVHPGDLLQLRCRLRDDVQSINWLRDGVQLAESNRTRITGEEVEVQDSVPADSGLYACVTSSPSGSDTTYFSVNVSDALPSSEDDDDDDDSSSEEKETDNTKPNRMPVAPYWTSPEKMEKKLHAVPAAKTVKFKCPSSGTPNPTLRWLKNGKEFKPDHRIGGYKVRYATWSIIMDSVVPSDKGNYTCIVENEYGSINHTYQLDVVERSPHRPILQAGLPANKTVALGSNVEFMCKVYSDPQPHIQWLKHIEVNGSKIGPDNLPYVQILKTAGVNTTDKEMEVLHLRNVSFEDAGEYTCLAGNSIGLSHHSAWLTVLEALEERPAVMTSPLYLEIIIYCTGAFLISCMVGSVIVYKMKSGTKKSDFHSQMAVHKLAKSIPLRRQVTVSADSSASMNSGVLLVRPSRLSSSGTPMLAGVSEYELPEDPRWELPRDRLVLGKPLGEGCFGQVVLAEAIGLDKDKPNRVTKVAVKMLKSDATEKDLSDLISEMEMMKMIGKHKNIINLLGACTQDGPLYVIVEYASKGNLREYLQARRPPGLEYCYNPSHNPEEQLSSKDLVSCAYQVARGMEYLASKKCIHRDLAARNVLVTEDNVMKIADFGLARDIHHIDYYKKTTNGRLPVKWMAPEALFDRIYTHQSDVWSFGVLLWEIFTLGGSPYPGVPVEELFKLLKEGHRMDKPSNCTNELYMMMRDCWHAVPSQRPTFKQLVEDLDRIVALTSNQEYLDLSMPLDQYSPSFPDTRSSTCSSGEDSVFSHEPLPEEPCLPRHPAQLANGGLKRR
The target of another data set is Jak2 (UniProt O60674). The description is as above.
In another data set the target is Grb2 SH2 (UniProt P62993). In words: SH2 binding enrichment of the phosphorylated peptide, bacterial display (enrichment ratio); higher = better substrate or ligand; peptides without Tyr show the background.
Chain of Grb2 SH2 (P62993 whole entry, looked up): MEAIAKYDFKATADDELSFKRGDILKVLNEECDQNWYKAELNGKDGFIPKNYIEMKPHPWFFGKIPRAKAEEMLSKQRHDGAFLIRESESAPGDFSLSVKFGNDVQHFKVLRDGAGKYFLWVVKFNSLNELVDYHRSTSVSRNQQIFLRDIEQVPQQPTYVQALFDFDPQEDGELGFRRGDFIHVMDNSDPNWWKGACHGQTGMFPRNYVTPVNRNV
The target in a further data set is SHP2-C SH2. The data set is described as above.
The target of the next data set is c-Src SH2. The data set is described as above.
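Throughout, for SH2 binding enrichment of the phosphorylated peptide, bacterial display: peptide library displayed on the E. coli surface as eCPX fusions, selected cells deep-sequenced, score is each peptide's frequency after selection divided by its frequency in the input.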
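Throughout, for phosphorylation enrichment, bacterial display: 11-residue human phosphosite peptides and single-mutation variants displayed on the E. coli surface, counted by deep sequencing, each peptide's frequency after selection divided by its frequency in the unselected input library; frequency after pTyr selection over input frequency; kinase dosed for 20-30% of maximal phosphorylation in three min.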

Chain of EPHB2 (P29323 whole entry, looked up): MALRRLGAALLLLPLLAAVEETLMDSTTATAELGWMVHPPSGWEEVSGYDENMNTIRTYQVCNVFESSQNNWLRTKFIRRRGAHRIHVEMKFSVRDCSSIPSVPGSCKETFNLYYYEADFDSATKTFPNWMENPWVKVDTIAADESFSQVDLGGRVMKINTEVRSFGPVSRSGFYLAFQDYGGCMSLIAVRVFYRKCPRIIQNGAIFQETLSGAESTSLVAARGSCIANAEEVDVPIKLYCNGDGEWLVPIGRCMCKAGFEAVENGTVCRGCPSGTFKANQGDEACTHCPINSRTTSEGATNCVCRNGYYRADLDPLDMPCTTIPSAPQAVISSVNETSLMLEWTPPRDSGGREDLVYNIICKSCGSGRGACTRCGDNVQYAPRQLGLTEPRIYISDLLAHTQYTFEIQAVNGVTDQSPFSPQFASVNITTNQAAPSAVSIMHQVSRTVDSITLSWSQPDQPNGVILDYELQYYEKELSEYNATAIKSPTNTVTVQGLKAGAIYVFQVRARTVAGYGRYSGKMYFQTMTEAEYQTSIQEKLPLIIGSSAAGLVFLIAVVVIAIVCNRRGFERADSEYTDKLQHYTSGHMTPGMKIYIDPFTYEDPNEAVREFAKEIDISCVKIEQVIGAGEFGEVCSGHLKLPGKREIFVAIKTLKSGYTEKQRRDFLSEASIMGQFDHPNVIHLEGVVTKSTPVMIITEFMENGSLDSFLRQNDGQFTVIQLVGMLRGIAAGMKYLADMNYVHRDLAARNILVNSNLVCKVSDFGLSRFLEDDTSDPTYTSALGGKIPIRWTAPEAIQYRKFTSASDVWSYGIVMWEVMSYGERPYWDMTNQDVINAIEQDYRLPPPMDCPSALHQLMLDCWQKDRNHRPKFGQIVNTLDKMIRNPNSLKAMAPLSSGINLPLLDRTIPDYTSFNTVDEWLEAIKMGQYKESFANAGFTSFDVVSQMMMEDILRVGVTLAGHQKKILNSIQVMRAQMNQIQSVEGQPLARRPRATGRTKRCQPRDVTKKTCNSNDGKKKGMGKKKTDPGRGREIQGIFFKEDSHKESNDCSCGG
Chain of FGFR3 (P22607 whole entry, looked up): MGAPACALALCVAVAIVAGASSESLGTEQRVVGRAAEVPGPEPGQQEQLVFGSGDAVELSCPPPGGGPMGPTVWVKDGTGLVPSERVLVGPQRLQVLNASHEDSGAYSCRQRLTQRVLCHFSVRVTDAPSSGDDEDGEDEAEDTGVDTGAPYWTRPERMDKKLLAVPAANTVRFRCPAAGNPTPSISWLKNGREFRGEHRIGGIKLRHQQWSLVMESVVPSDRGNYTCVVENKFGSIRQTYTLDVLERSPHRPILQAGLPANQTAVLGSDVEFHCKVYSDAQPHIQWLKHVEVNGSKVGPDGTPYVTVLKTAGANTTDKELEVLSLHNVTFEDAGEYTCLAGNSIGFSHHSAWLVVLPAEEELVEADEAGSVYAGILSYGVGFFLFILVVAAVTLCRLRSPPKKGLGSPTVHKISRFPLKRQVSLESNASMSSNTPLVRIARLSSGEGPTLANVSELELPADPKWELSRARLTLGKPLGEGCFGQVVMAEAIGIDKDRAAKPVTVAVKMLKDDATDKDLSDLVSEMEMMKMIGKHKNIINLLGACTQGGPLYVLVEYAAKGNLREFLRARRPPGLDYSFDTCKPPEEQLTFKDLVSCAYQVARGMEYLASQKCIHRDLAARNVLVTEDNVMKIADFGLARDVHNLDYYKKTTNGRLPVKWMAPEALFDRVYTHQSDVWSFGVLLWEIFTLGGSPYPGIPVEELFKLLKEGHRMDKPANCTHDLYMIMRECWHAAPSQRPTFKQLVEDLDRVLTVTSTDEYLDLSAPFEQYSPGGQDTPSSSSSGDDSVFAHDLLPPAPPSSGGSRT
Chain of Fyn (P06241 whole entry, looked up): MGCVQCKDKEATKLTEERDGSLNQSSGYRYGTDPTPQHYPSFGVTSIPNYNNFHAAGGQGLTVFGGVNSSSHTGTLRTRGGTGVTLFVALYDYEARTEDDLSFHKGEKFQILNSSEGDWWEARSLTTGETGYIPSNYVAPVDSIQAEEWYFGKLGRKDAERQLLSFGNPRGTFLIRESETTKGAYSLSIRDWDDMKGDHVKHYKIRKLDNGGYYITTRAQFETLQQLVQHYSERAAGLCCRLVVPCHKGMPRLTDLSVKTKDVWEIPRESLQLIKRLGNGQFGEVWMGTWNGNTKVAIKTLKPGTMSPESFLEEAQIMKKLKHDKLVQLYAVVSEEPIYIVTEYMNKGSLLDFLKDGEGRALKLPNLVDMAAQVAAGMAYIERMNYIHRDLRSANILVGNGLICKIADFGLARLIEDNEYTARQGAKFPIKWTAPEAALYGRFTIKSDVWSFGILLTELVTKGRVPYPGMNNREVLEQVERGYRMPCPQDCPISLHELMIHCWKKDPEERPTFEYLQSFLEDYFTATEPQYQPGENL

Consider SGIFQYSIAKF [FOXL2_Y83_I84S_YF], for which the phosphorylation enrichment in the data set on AncSZ is 0.889; with FGFR3, 0.638; with Fes, 0.969; in the data set with c-Src, 0.5; in the data set on c-Abl (mouse), 0.573; with EPHB2, 0.525. Besides, the phosphorylation enrichment was determined as 0.555 with EPHB1; 0.469 in the data set with MERTK; 0.478 with Fyn; 0.569 in the data set with Hck; 0.467 in the data set with Fer (mouse); 0.64 in the data set with FGFR1. The phosphorylation enrichment with Jak2 was 0.756. In addition, the values for the SH2 binding enrichment in the data set with Grb2 SH2, with SHP2-C SH2 and with c-Src SH2 were 0.947, 1.5 and 1.11, respectively.
SHNELYFEEAE [VANGL1_Y344_YF]: the phosphorylation enrichment in the data set with AncSZ is 1.09; with FGFR3 it was 1.02; with Fes, 1.21; with c-Src, 0.492; with c-Abl (mouse), 0.671; in the data set with EPHB2 it was 0.619. Moreover, the phosphorylation enrichment with EPHB1 was 0.568; in the data set with MERTK it was 0.556; with Fyn, 0.67; with Hck, 0.633; in the data set on Fer (mouse) it was 0.693; with FGFR1 it was 0.68. For the same sequence, the phosphorylation enrichment in the data set with Jak2 was 1.23. Besides, the figures for the SH2 binding enrichment with Grb2 SH2, with SHP2-C SH2 and with c-Src SH2 were 0.941, 0.71 and 0.46, respectively.
SILAVYSKDIF [PANK2_Y400_N404I_YF]: the phosphorylation enrichment in the data set on AncSZ is 0.691; in the data set with FGFR3 it was 0.537; in the data set with Fes it was 0.663; in the data set with c-Src, 1.62; in the data set on c-Abl (mouse), 0.578; with EPHB2, 0.494. Besides, the phosphorylation enrichment in the data set with EPHB1 turned out to be 0.477; with MERTK it was 2.99; with Fyn, 1.11; with Hck, 0.765; in the data set with Fer (mouse), 0.46; with FGFR1 it was 0.445. The phosphorylation enrichment in the data set with Jak2 worked out at 0.688. The figures for the SH2 binding enrichment with Grb2 SH2, with SHP2-C SH2 and in the data set with c-Src SH2 were 1.02, 0.678 and 0.764, respectively.
In the case of SLGKGYFDGGC [MC4R_Y35_S36Y_YF], the phosphorylation enrichment in the data set on AncSZ is 0.922; with FGFR3 it was 0.611; with Fes, 0.924; in the data set with c-Src it was 0.481; in the data set on c-Abl (mouse), 0.842; in the data set with EPHB2, 0.529. Moreover, the phosphorylation enrichment in the data set with EPHB1 was 0.452; with MERTK, 0.389; with Fyn, 0.377; with Hck, 0.429; in the data set with Fer (mouse), 0.35; with FGFR1, 0.434. For the same sequence, the phosphorylation enrichment with Jak2 turned out to be 0.889. For the same sequence, the SH2 binding enrichment with Grb2 SH2 was determined as 0.838; with SHP2-C SH2 it was 0.704; with c-Src SH2, 0.555.
As for SLGSPYGQPPC [PDLIM4_Y137_R142C], the phosphorylation enrichment in the data set with AncSZ was determined as 0.659; with FGFR3 it was 0.588; in the data set with Fes, 0.835; in the data set on c-Src, 0.373; in the data set with c-Abl (mouse), 0.817; with EPHB2 it was 0.491. In addition, the phosphorylation enrichment with EPHB1 was found to be 0.453; with MERTK, 0.39; with Fyn it was 0.458; in the data set with Hck, 0.576; in the data set on Fer (mouse), 0.37; in the data set with FGFR1, 0.465. The phosphorylation enrichment with Jak2 was 0.568. In addition, the SH2 binding enrichment with Grb2 SH2 is 0.875; in the data set with SHP2-C SH2, 0.88; in the data set with c-Src SH2, 0.562.
In the case of SLIDMYSEVLD [OPA1_Y268], the phosphorylation enrichment in the data set with AncSZ is 1.26; with FGFR3 it was 0.719; with Fes, 1.12; with c-Src, 0.591; in the data set on c-Abl (mouse), 0.569; in the data set with EPHB2, 0.683. Besides, the phosphorylation enrichment came to 0.621 in the data set with EPHB1; 0.527 in the data set with MERTK; 0.575 with Fyn; 0.579 in the data set with Hck; 0.535 in the data set on Fer (mouse); 0.633 with FGFR1. For the same sequence, the phosphorylation enrichment with Jak2 came out at 1.1. Besides, the SH2 binding enrichment was found to be 0.839 with Grb2 SH2, 0.924 with SHP2-C SH2 and 0.778 with c-Src SH2.
SLLTDDSPQLQ [OTC_Y345_Y345D]: the phosphorylation enrichment in the data set on AncSZ came to 1.14; with FGFR3, 0.764; with Fes it was 1.29; in the data set on c-Src it was 0.453; in the data set with c-Abl (mouse) it was 0.923; with EPHB2, 0.548. In addition, the phosphorylation enrichment is 0.928 with EPHB1; 0.538 with MERTK; 0.407 with Fyn; 0.481 with Hck; 0.444 in the data set on Fer (mouse); 0.491 with FGFR1. Further, the phosphorylation enrichment in the data set with Jak2 was 1.22. Moreover, the figures for the SH2 binding enrichment in the data set with Grb2 SH2, with SHP2-C SH2 and with c-Src SH2 were 0.746, 0.49 and 0.413, respectively.
Turning to SLNAVYPRAGS [OAS3_Y376], the phosphorylation enrichment turned out to be 0.451 in the data set on AncSZ; 0.357 with FGFR3; 0.481 in the data set with Fes; 0.368 in the data set with c-Src; 0.507 with c-Abl (mouse); 0.323 with EPHB2. In addition, the phosphorylation enrichment turned out to be 0.306 in the data set with EPHB1; 0.378 in the data set with MERTK; 0.331 with Fyn; 0.368 in the data set with Hck; 0.314 in the data set with Fer (mouse); 0.384 with FGFR1. Also, in the data set with Jak2, the phosphorylation enrichment is 0.462. Further, the SH2 binding enrichment amounted to 0.872 with Grb2 SH2, 0.509 in the data set with SHP2-C SH2 and 0.452 in the data set with c-Src SH2.
Take SLTCTYSPALN [TP53_Y126_V122L]: the phosphorylation enrichment in the data set on AncSZ stood at 1.56; in the data set with FGFR3, 1.21; in the data set with Fes, 1.81; with c-Src it was 0.804; with c-Abl (mouse) it was 1.65; in the data set with EPHB2, 0.882. The phosphorylation enrichment was found to be 0.924 with EPHB1; 0.522 in the data set with MERTK; 0.797 with Fyn; 0.818 with Hck; 0.696 with Fer (mouse); 0.66 in the data set with FGFR1. For the same sequence, the phosphorylation enrichment with Jak2 is 1.57. Besides, the SH2 binding enrichment in the data set with Grb2 SH2 is 0.657; with SHP2-C SH2, 0.453; with c-Src SH2, 0.487.
